In US20200299408A1 (Genentech, published 2020):
Several values for one entry are separate records, joined by “and”; a condition that tells them apart may be missing. Identical values can stand only once.

T1: single chain human CD3ε-26mer-CD3γ (CD3εγ) (human)
T1 construct: also called human CD3εγ
T1 chain: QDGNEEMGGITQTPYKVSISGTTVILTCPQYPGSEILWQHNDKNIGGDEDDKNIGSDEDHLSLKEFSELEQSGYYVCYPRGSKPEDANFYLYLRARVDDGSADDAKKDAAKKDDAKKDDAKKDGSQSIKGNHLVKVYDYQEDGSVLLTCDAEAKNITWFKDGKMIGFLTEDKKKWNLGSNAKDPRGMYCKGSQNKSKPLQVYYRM


How the values were obtained:
[1] = target: CD3 antigen of Figures 3B and 3C (not named); experiment: kinetic table of IgGs; method and antigen not stated
[2] = target: T1, single chain human CD3ε-26mer-CD3γ …; experiment: Biacore, human CD3εγ on chip, Fab in flow through
Description: (§1) Binding affinities for the each of the CD3/CD20 TDBs were tested by Biacore or FACS analysis, as described above for the anti-CD3 antibodies. Briefly, for Biacore binding assays, human CD3εγ was immobilized on Biacore Series S CM5 sensor chip using the amine coupling kit from Biacore and CD3/CD20 TDBs or Fab variants thereof were in the flow through. For FACS binding assays, either Bjab cells (for B cell antigens) or Jurkat cells (for CD3 antigen) were incubated with various concentrations of TDB antibodies at 4° C. for 30 minutes, then cells were washed and incubated with 2nd antibody (anti-huIgG-PE; BD Bioscience) for another 15 minutes, before cells were washed again and ready for FACS analysis.

[3] = target: T1, single chain human CD3ε-26mer-CD3γ …; experiment: Biacore single cycle kinetics: Fab captured by anti-human Fab, human CD3εγ injected (3-250 nM)
Excerpt: In addition, position 95 in HVR-H3 was also mutated to serine, threonine, or glutamate. Variants with these single point mutations were expressed as Fabs in HEK293 cells and initially screened with a single cycle kinetics method on a Biacore T100. Selected variants were also scaled up and purified for a conventional multi-cycle kinetics method. For single cycle kinetics, Biacore Series S CM5 sensor chips were immobilized with anti-human Fab antibodies (Human Fab capture kit, GE Healthcare). […] For conventional multi-cycle kinetics, human CD3εγ, cyno CD3εγ, or a 27-mer peptide were immobilized on Biacore Series S CM5 sensor chip using the amine coupling kit from Biacore. Serial 3-fold dilutions of each Fab variant were injected at a flow rate of 30 μl/min. Each sample was analyzed with a protocol of 3-minute association and 3-minute dissociation. In both methods, the Biacore chips were regenerated using 10 mM Glycine (pH 1.7). Binding response was corrected by blank subtraction and a 1:1Languir model of simultaneous fitting of kₒₙ and koff was used for kinetics analysis.

[4] = target: T1, single chain human CD3ε-26mer-CD3γ …; experiment: Biacore, human CD3εγ on chip, TDB in flow through
Description: as §1

human CD3 on T cells = target: T2, human CD3 on T cells (human, UniProt P07766 22-207); experiment: FACS on Jurkat cells (CD3); EC50 table for the curves of FIGS. 21A-21B; source CHO (N297G)
T2 construct: whole, on cells; On cells CD3ε stands in the CD3/TCR complex; also called CD3 antigen; CD3ε
Description: as §1

Binder	Kd [1]	koff [1]	kon [1]	further results
127B3 (antibody, IgG3, V domains shown, mouse hybridoma clone) VH: QVQLQQSGSELVRPGASLKLSCKASGYTFTSYWMHWVRQRPGQGLEWIGNFYPGDLTVNYDEKFKNKVTLAVDTSSSTAFLQLSSLTSEDSAVYYCTRDAYSRYFFDYWGQGTTLTVSS VL: DIVMTQSPSSLAVSAGEKVTMSCKSSQSLLNSRTRKNYLAWYQQKPGQSPKLLIYWASTRESGVPDRFTGSGSGTDFTLTISSVQTEDLAVYYCCQSFILRTFGGGTKLEIK	0.744 nM	9.67e-05 s⁻¹	130000 M⁻¹ s⁻¹	
38E4v9 Fab (Fab, V domains shown) VH: EVQLVQSGAEVKKPGASVKVSCKASGFTFTSYYIHWVRQAPGQGLEWIGWIYPENDNTKYNEKFKDRVTITADTSTSTAYLELSSLRSEDTAVYYCARDGYSRAYFDYWGQGTLVTVSS VL: DIVMTQSPDSLAVSLGERATINCKSSQSLLNSRTRKNYLAWYQQKPGQSPKLLIYWTSTRKSGVPDRFSGSGSGTDFTLTISSLQAEDVAVYYCKQSFILRTFGQGTKVEIK				Kd [2]: 229 nM; koff [2]: 0.0166 s⁻¹; kon [2]: 72600 M⁻¹ s⁻¹
40G5c Fab (Fab, V domains shown) VH: EVQLVQSGAEVKKPGASVKVSCKASGYTFTNYYIHWVRQAPGQGLEWIGWIYPGDGNTKYNEKFKGRATLTADTSTSTAYLELSSLRSEDTAVYYCARDSYSNYYFDYWGQGTLVTVSS VL: DIVMTQSPDSLAVSLGERATINCKSSQSLLNSRTRKNYLAWYQQKPGQPPKLLIYWASTRESGVPDRFSGSGSGTDFTLTISSLQAEDVAVYYCTQSFILRTFGQGTKVEIK				Kd [2]: 63.2 nM; koff [2]: 0.0253 s⁻¹; kon [2]: 401000 M⁻¹ s⁻¹
hu38E4.v1 H3 mutant Y97A (Fab, V domains shown, copies: 1 + 1) VH: EVQLVQSGAEVKKPGASVKVSCKASGFTFTSYYIHWVRQAPGQGLEWIGWIYPENDNTKYNEKFKDRVTITADTSTSTAYLELSSLRSEDTAVYYCARDGASRYYFDYWGQGTLVTVSS VL: DIVMTQSPDSLAVSLGERATINCKSSQSLLNSRTRKNYLAWYQQKPGQSPKLLIYWTSTRKSGVPDRFSGSGSGTDFTLTISSLQAEDVAVYYCKQSFILRTFGQGTKVEIK				binding result [3]: no binding (tested: 250 nM CD3εγ (p-1386; not on the sheet))
hu38E4.v1 H3 mutant F100bA (Fab, V domains shown, copies: 1 + 1) VH: EVQLVQSGAEVKKPGASVKVSCKASGFTFTSYYIHWVRQAPGQGLEWIGWIYPENDNTKYNEKFKDRVTITADTSTSTAYLELSSLRSEDTAVYYCARDGYSRYYADYWGQGTLVTVSS VL: DIVMTQSPDSLAVSLGERATINCKSSQSLLNSRTRKNYLAWYQQKPGQSPKLLIYWTSTRKSGVPDRFSGSGSGTDFTLTISSLQAEDVAVYYCKQSFILRTFGQGTKVEIK				binding result [3]: no binding (tested: 250 nM CD3εγ (p-1386; not on the sheet))
hu38E4.v1 H3 mutant R99A (Fab, V domains shown, copies: 1 + 1) VH: EVQLVQSGAEVKKPGASVKVSCKASGFTFTSYYIHWVRQAPGQGLEWIGWIYPENDNTKYNEKFKDRVTITADTSTSTAYLELSSLRSEDTAVYYCARDGYSAYYFDYWGQGTLVTVSS VL: DIVMTQSPDSLAVSLGERATINCKSSQSLLNSRTRKNYLAWYQQKPGQSPKLLIYWTSTRKSGVPDRFSGSGSGTDFTLTISSLQAEDVAVYYCKQSFILRTFGQGTKVEIK				binding result [3]: no binding (tested: 250 nM CD3εγ (p-1386; not on the sheet))
38E4v3 CHO (bispecific antibody, also called CD3/CD20 TDB 2H7v16/38E4v3) anti-CD20 arm heavy chain: EVQLVESGGGLVQPGGSLRLSCAASGYTFTSYNMHWVRQAPGKGLEWVGAIYPGNGDTSYNQKFKGRFTISVDKSKNTLYLQMNSLRAEDTAVYYCARVVYYSNSYWYFDVWGQGTLVTVSS anti-CD20 arm light chain: DIQMTQSPSSLSASVGDRVTITCRASSSVSYMHWYQQKPGKAPKPLIYAPSNLASGVPSRFSGSGSGTDFTLTISSLQPEDFATYYCQQWSFNPPTFGQGTKVEIK anti-CD3 arm heavy chain: EVQLVQSGAEVKKPGASVKVSCKASGFTFTSYYIHWVRQAPGQGLEWIGWIYPENDNTKYNEKFKDRVTITADTSTSTAYLELSSLRSEDTAVYYCARDGYSRYYFDYWGQGTLVTVSS anti-CD3 arm light chain: DIVMTQSPDSLAVSLGERATINCKSSQSLLNSRTRKNYLAWYQQKPGQSPKLLIYWTSTRKSGVPDRFSGSGSGTDFTLTISSLQAEDVAVYYCKQSFALRTFGQGTKVEIK				Kd [4]: 3.21 nM and 3.2 nM; koff [4]: 0.016 s⁻¹; kon [4]: 4.98e+06 M⁻¹ s⁻¹; EC50 (human CD3 on T cells): 0.29 µg/mL and ~1.9 nM
38E4v2 CHO (bispecific antibody, also called CD3/CD20 TDB 2H7v16/38E4v2) anti-CD20 arm heavy chain: EVQLVESGGGLVQPGGSLRLSCAASGYTFTSYNMHWVRQAPGKGLEWVGAIYPGNGDTSYNQKFKGRFTISVDKSKNTLYLQMNSLRAEDTAVYYCARVVYYSNSYWYFDVWGQGTLVTVSS anti-CD20 arm light chain: DIQMTQSPSSLSASVGDRVTITCRASSSVSYMHWYQQKPGKAPKPLIYAPSNLASGVPSRFSGSGSGTDFTLTISSLQPEDFATYYCQQWSFNPPTFGQGTKVEIK anti-CD3 arm heavy chain: EVQLVQSGAEVKKPGASVKVSCKASGFTFTSYYIHWVRQAPGQGLEWIGWIYPENDNTKYNEKFKDRVTITADTSTSTAYLELSSLRSEDTAVYYCARDAYSRYYFDYWGQGTLVTVSS anti-CD3 arm light chain: DIVMTQSPDSLAVSLGERATINCKSSQSLLNSRTRKNYLAWYQQKPGQSPKLLIYWTSTRKSGVPDRFSGSGSGTDFTLTISSLQAEDVAVYYCKQSFILRTFGQGTKVEIK				Kd [4]: 2.43 nM and 2.4 nM; koff [4]: 0.00513 s⁻¹; kon [4]: 2.11e+06 M⁻¹ s⁻¹; EC50 (human CD3 on T cells): 0.52 µg/mL and ~3.4 nM

Further lines, with some results ahead:

Kd [1]	koff [1]	kon [1]	Binder	further results
0.209 nM	3.74e-05 s⁻¹	179000 M⁻¹ s⁻¹	118G9 (antibody, IgG3, V domains shown, mouse hybridoma clone) VH: QVQLQQPGSELVRPGASVTLSCTASGYSFTSYWMHWVKQRPGQGLEWVGNIYPGGEIINYAEKFKTKGTLTVDISSSTAYMHLSSLTSDDSAVYYCTRDTTGNYFFDYWGQGTTLTVSS VL: DIVMTQSPSSLAVSAGEKVTMSCKSSQSLLNSRTRKNYLAWYQQKPGLSPKLLIYWASTRESGVPERFTGSGSGTDFTLTISSVQTEDLAVYYCTQSFILRTFGGGTRLEIK	
0.331 nM	7.31e-05 s⁻¹	220000 M⁻¹ s⁻¹	39B7 (antibody, IgG2b, V domains shown, mouse hybridoma clone) VH: QVQLQQSGPELVKPGTSVKISCKTSGYNFINYYTHWVKQRPGQGLEWIGWIYPGNGNIKYNEKFMGKATLTADTSSTTAHMHLSSLVSEDSAVYYCARDSYGSYYFDYWGQGTTLTVSS VL: DIVMTQSPSSLAVSAGEKVTMTCKSSQSLLNSRTRKNYLAWYQQKPGQSPKLLIYWASTRESGVPDRFTGSGSGTDFTLTISSVQAEDLAVYYCKQSFILRTFGGGTKLEIK	
0.563 nM	0.000111 s⁻¹	197000 M⁻¹ s⁻¹	40D2 (antibody, IgG2b, V domains shown, mouse hybridoma clone) VH: QVQLQQSGPELVKPGASLKISCKASGYSFANYYTHWVRQRPGQGLEWIGWLYPGNGDTRYNEKFKDKATLTADTSSNTASMQLNSLTSEDSAVYYCTRDSYGNYFFDYWGQGTTLIVSS VL: DIVMTQSPSSLAVSAGEKVTMSCKSSQSLLNSRTRKNYLAWYQQKPGQSPKLLIFWASTRESGVPDRFTGSGSGTDFTLTISSVQAEDLAVYYCKQSFILRTFGGGTKLELK	
0.0644 nM	1.87e-05 s⁻¹	290000 M⁻¹ s⁻¹	95A2 (antibody, IgG3, V domains shown, mouse hybridoma clone) VH: QVQLQQSGPEMVKPGASVTISCKTSGFTFTSYYIHWMMQRPGQGLEWIGWLYPGDVSTRYNEKFRDKATLTADKSSTTAYLYLSSLTSEDSAVYFCARDSSASYYFDFWGQGTTLTVSS VL: DIVMTQSPSSLAVSAGEMVTLHCKSSQSLLNIRTRKNYLAWYLQKPGQSPRLLIYWASTRASGVPDRFTGSGSGTDFTLTISSVQPEDLAVYYCTQSFILRTFGGGTKLELK	
0.224 nM	3.41e-05 s⁻¹	152000 M⁻¹ s⁻¹	79B7 (antibody, IgG3, V domains shown, mouse hybridoma clone) VH: QVQLQQSGSELVRPGASLKLSCKASGYTFTSYWMHWVRQRPGQGLEWIGNSYPGDLNVNYDEKFKNKVTLAVDTSSSTAFLQLSSLTSEDSAVYYCTRDAYSRYFFDYWGQGTTLTVSS VL: DIVMTQSPSSLAVSAGEKVTMSCKSSQSLLNSRTRKNYLAWYQQKPGQSPKLLIYWASTRESGVPDRFTGSGSGTDFTLTISSVQTEDLAVYYCCQSFILRTFGGGTKLEIK	
